The values that follow come from article PMC6300008.

A short description of this data set: LDH release into supernatant, 24 h. Particulars: glycan lost; control: WT-transfected BV2 cells plus LPS, co-cultured with neurons. For orientation: LDH leaks from cells whose membrane has failed.

B1: CD200R1 (CD200 receptor 1): N44Q (protein)
parent chain: MFCFWRTSALAVLLIWGVFVAGSSCTDKNQTTQNNSSSPLTQVNTTVSVQIGTKALLCCFSIPLTKAVLITWIIKLRGLPSCTIAYKVDTKTNETSCLGRNITWASTPDHSPELQISAVTLQHEGTYTCETVTPEGNFEKNYDLQVLVPPEVTYFPEKNRSAVCEAMAGKPAAQISWSPDGDCVTTSESHSNGTVTVRSTCHWEQNNVSDVSCIVSHLTGNQSLSIELSRGGNQSLRPYIPYIIPSIIILIIIGCICLLKISGFRKCKLPKLEATSAIEEDEMQPYASYTEKSNPLYDTVTKVEAFPVSQGEVNGTDCLTLSAIGI
With B1, the “other: neuronal death in co-culture” value is “increases”.
